These results are taken from publication PMC3843637.

The term Kd denotes the equilibrium constant for the complex coming apart.

This assay has as its target MAN1 fragment from amino acids 658 to 911 (MAN1C) (human) (UniProt Q9Y2U8). In words: SEC + NMR titration.

MAN1 fragment from amino acids 658 to 911 (MAN1C) (human), sequence (Q9Y2U8 658-911): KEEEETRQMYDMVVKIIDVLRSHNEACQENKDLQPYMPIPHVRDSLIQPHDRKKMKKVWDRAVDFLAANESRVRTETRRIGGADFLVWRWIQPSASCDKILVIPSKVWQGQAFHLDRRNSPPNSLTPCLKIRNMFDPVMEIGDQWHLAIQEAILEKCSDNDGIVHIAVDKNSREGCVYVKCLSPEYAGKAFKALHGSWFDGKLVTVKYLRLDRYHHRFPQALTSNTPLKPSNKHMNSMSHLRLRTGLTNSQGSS

“PPM1A (from UniProt P35813 1-382) (enzyme)”: the Kd fell in the range of 10 to 500 µM.
